Test [1] addresses GLT-1, transfected in HEK PS DKO cells (UniProt P31596). Nature of the test: native gel or EMSA; Blue Native PAGE of HEK PS DKO cells transfected with GLT-1 and pcDNA3.1-GFP or wildtype PS1, lysed with digitonin 5%; blot with anti-GLT-1.
Test [2] shares this target. Nature of the test: cross-linking; living HEK PS DKO cells transfected with GLT-1 and empty vector or wildtype PS1; 50 μM DSS in PBS−/− for 30 min at room temperature, quenched with 20 mM glycine; lysed in 1% NP-40 + 0.1% Triton-X; SDS-PAGE and blot with anti-GLT-1.

“And” between values parts separate entries of the source, which are not always exact repeats. Equal entries are not always repeated.

The stoichiometry N is the number of molecules, sites or subunits per partner or assembly. “GLT-1, transfected in HEK PS DKO cells (from UniProt P31596 1-573) (natural protein)”: in test [1], the GLT-1 multimers as percent of total GLT-1, with co-expressed PS1 stood at 95.6%; the GLT-1 multimers as percent of total GLT-1, without PS1 is 89.7%; the stoichiometry N was 2 and 3. Moreover, in test [2], the stoichiometry N is 2 and 3.

Source of the values: paper PMC10659539.
